This test has as its system blood clots. In words: Blood clot resolution in murine mesentery venules. Format: in vivo.

Excerpt: Here, a novel thrombolytic nanoagent is realized by conjugating directly the clinical formulation of tPA to the porous structure of soft discoidal polymeric nanoconstructs (tPA-DPNs).

B1: Tissue plasminogen activator (protein, UniProt P00750 36-562, looked up)
Tissue-type plasminogen …: SYQVICRDEKTQMIYQQHQSWLRPVLRSNRVEYCWCNSGRAQCHSVPVKSCSEPRCFNGGTCQQALYFSDFVCQCPEGFAGKCCEIDTRATCYEDQGISYRGTWSTAESGAECTNWNSSALAQKPYSGRRPDAIRLGLGNHNYCRNPDRDSKPWCYVFKAGKYSSEFCSTPACSEGNSDCYFGNGSAYRGTHSLTESGASCLPWNSMILIGKVYTAQNPSAQALGLGKHNYCRNPDGDAKPWCHVLKNRRLTWEYCDVPSCSTCGLRQYSQPQFRIKGGLFADIASHPWQAAIFAKHRRSPGERFLCGGILISSCWILSAAHCFQERFPPHHLTVILGRTYRVVPGEEEQKFEVEKYIVHKEFDDDTYDNDIALLQLKSDSSRCAQESSVVRTVCLPPADLQLPDWTECELSGYGKHEALSPFYSERLKEAHVRLYPSSRCTSQHLLNRTVTDNMLCAGDTRSGGPQANLHDACQGDSGGPLVCLNDGRMTLVGIISWGLGCGQKDVPGVYTKVTNYLDWIRDNMRP
As to B1, the “clots dissolved / vessels” value (1.0 mg/kg, about 1 tenth of the clinical dose) stood at 16%. Where the note is “intravenous, 2.5 mg/kg”, the “blood clots resolved / vessels recanalized” value is on record as “about 40%”.
